Measured values published in US20240219403A1, “METHODS FOR INHIBITING KRAS ONCOPROTEIN THROUGH ENHANCED GTPASE ACTIVITY” (Memorial Sloan-Kettering Cancer Center, priority 2021, published 2024).

Target: T1, KRAS^G12C (Homo sapiens, UniProt P01116, G12C)
T1 construct: endogenous in cells; host or cells: H358, H2122, H2030, SW1573 (KRAS G12C-mutant lung cancer lines, ATCC)
Assay: GTPase assays of purified GTP-loaded KRAS^G12C incubated with GAP proteins (γ-phosphate, α-phosphate, continuous phosphate release)
Format: biochemical
Details: purified proteins
Procedure: GTP[γ^32P] hydrolysis assay. KRAS proteins (0.5 μg) were reacted with 0.04 μM GTP[γ^32P] (6000 Ci/mmol; PerkinElmer Life Sciences) in 100 μL loading buffer (50 mM HEPES, pH 7.5, 50 mM NaCl, 1 mM DTT, 0.1 mM EGTA, 10 mM EDTA, and 1 mg/mL BSA) for 10 min at 30° C. (5, 40). Loading reactions were stopped by placing on ice and adding MgCl2 to a final concentration of 20 mM. The GTPase assays were performed at 30° C. in 100 μL mixtures containing 20 nM of loaded KRAS and either hydrolysis buffer (25 mM HEPES pH 7.5, 50 mM NaCl, 1 mM DTT, 1 mM MgCl2 and 1 mg/mL BSA) alone, or in combination with WCE or purified RGS3 (0.08-0.4 μg/μL). Equimolar comparisons of NF1, RASA1 and RGS3 were carried out using the continuous hydrolysis assay (see below). Reactions were stopped at the indicated time by filtering through 0.45-μm nitrocellulose membrane filters. The filters were washed 3 times with 0.2 mL of ice-cold hydrolysis buffer, air dried, and processed by autoradiography. Reaction rates were determined by fitting an exponential curve to the data, which was normalized to the baseline value. For the determination of protein stability, the hydrolysis reactions were stopped by boiling at 100° C. for 10 min in Laemmli buffer. The samples were then subjected to SDS-PAGE followed by Coomasie staining (CBB) or immunoblotting with a His-specific antibody.
GTP[α^32P] hydrolysis assay. KRAS proteins were loaded with GTP[α^32P] (3000 Ci/mmol; PerkinElmer Life Sciences) and subjected to the hydrolysis reaction as indicated above. Upon completion of the hydrolysis reaction and immobilization of KRAS-nucleotide complexes on nitrocellulose membranes, the nucleotides were eluted by incubating with elution buffer (50 mM HEPES pH 7.5, 50 mM NaCl, 1 mM DTT, 0.1 mM EGTA, 0.1% SDS, 10 mM EDTA, 1 mM GTP and 1 mM GDP) for 3 min at 85° C. […]
Continuous hydrolysis assay (two-step detection of inorganic phosphate). […] The reaction was monitored by reading the absorbance at 360 nm every 10 to 20 s for ˜16-60 min at room temperature. […]

| Molecule | effect on GTP-hydrolysis by KRAS^G12C |
| --- | --- |
| RASA1: canonical RAS-GAP (protein) MEKIMPEEEYSEFKELILQKELHVVYALSHVCGQDRTLLASILLRIFLHEKLESLLLCTLNDREISMEDEATTLFRATTLASTLMEQYMKATATQFVHHALKDSILKIMESKQSCELSPSKLEKNEDVNTNLTHLLNILSELVEKIFMASEILPPTLRYIYGCLQKSVQHKWPTNTTMRTRVVSGFVFLRLICPAILNPRMFNIISDSPSPIAARTLILVAKSVQNLANLVEFGAKEPYMEGVNPFIKSNKHRMIMFLDELGNVPELPDTTEHSRTDLSRDLAALHEICVAHSDELRTLSNERGAQQHVLKKLLAITELLQQKQNQYTKTNDVR | no measurable effect |
| NF1: canonical RAS-GAP; recombinant NF1 GAP related domain (1198-1530aa) (protein, left off: small tags and cut ends) ETVLADRFERLVELVTMMGDQGELPIAMALANVVPCSQWDELARVLVTLFDSRHLLYQLLWNMFSKEVELADSMQTLFRGNSLASKIMTFCFKVYGATYLQKLLDPLLRIVITSSDWQHVSFEVDPTRLEPSESLEENQRNLLQMTEKFFHAIISSSSEFPPQLRSVCHCLYQATCHSLLNKATVKEKKENKKSVVSQRFPQNSIGAVGSAMFLRFINPAIVSPYEAGILDKKPPPRIERGLKLMSKILQSIANHVLFTKEEHMRPFNDFVKSNFDAARRFFLDIASDCPTSDAVNHSLSFISDGNVLALHRLLWNNQEKIGQYLSSNRDHKA | some activity |
| RGS4: regulator of G protein signaling 4, RGS family member (protein) MCKGLAGLPASCLRSAKDMKHRLGFLLQKSDSCEHNSSHNKKDKVVICQRVSQEEVKKWAESLENLISHECGLAAFKAFLKSEYSEENIDFWISCEEYKKIKSPSKLSPKAKKIYNEFISVQATKEVNLDSCTREETSRNMLEPTITCFDEAQKKIFNLMEKDSYRRFLKSRFYLDLVNPSSCGAEKQKGAKSSADCASLVPQCA | enhance the KRAS GTPase activity |
